# How the values were obtained:
# [1] = molecular target: T1, CD300c antigen (11832-H08H, Sino Biological) (human, UniProt Q08708 21-183); assay: selection ELISA of Example 1.2, scFv periplasmic extract on coated CD300c antigen
# T1 construct: Bought antigen; also called CD300c protein; CD300 antigen-like family member C
# T1 sequence (looked up): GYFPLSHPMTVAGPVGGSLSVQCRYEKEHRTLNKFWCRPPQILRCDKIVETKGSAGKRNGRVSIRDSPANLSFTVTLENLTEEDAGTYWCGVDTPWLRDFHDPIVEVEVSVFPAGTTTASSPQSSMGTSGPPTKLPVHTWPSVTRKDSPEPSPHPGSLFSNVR
# Protocol: In order to select anti-CD300c monoclonal antibodies specifically binding, with high binding affinity, to a CD300c antigen, ELISA was performed using the library pool obtained by the same method as in Example 1.1. More specifically, each of a CD300c antigen and a CD300a antigen in a coating buffer (0.1 M sodium carbonate, pH 9.0) was dispensed into an ELISA plate at a concentration of 5 μg/mL per well, followed by incubation at room temperature for 3 hours, to allow the antigen to bind to the plate. The unbound antigens were removed by washing three times using phosphate buffered saline-Tween 20 (PBST), and then 350 μL of PBST supplemented with 2% bovine serum albumin (BSA) was added to each well, followed by incubation at room temperature for 1 hour and then washing again using PBST. Then, 25 μg of a periplasmic extract containing scFv obtained by the same method as in Example 1.1 was added thereto, followed by incubation for 1 hour at room temperature for antigen binding. After 1 hour, the unbound scFv was removed by washing three times using PBST, and then 4 μg/mL of an antibody for detection was added, followed by incubation again at room temperature for 1 hour. Subsequently, the unbound antibodies for detection were removed using PBST, and then HRP-conjugated anti-rabbit IgG was added, followed by incubation at room temperature for 1 hour. The unbound antibodies were removed again using PBST. Subsequently, 3,3′,5,5′-tetramethylbenzidine (TMB) solution was added, followed by incubation for 10 minutes for development. Then, 2 N sulfuric acid solution was added to terminate the development reaction, and the absorbance was measured at 450 nm to identify the antibodies specifically binding to the CD300c antigen.
# [2] = molecular target: T1, CD300c antigen (11832-H08H, Sino …); assay: binding ELISA, plate coated with CD300c antigen (8 µg/mL), HRP anti-Fc IgG detection
# Protocol: In order to identify the antigen-binding ability of the anti-CD300c monoclonal antibodies produced in Example 1, binding ELISA was performed. Specifically, a CD300c antigen (11832-H08H, Sino Biological) or a CD300a antigen (12449-H08H, Sino Biological) in a coating buffer (0.1 M sodium carbonate, pH 9.0) was dispensed into an ELISA plate at a concentration of 8 μg/mL per well, followed by incubation at room temperature for 3 hours to allow the antigen to be bound to the plate. The unbound antigens were removed by washing three times using phosphate buffered saline-Tween 20 (PBST), and then 300 μL of PBST supplemented with 5% bovine serum albumin (BSA) was added to each well, followed by incubation at room temperature for 1 hour and then washing using PBST. Then, an anti-CD300c monoclonal antibody was diluted in quadruplicate and added thereto, followed by incubation for 1 hour at room temperature for antigen binding. After 1 hour, washing was performed three times using PBST to remove unbound anti-CD300c monoclonal antibody, and then 4 μg/mL of an antibody for detection (HRP conjugated anti-Fc IgG) was added, followed by incubation again at room temperature for 1 hour. Subsequently, the unbound antibody for detection was removed using PBST, and then TMB solution was added, followed by incubation for 10 minutes for development. Then, 2 N sulfuric acid solution was added to terminate the development reaction, and the absorbance was measured at 450 nm to identify the antibodies specifically binding to the CD300c antigen.
# [3] = molecular target: T2, mouse CD300c (mouse); assay: cell-based or functional assay
# T2 sequence (A2A7V7 whole entry, looked up): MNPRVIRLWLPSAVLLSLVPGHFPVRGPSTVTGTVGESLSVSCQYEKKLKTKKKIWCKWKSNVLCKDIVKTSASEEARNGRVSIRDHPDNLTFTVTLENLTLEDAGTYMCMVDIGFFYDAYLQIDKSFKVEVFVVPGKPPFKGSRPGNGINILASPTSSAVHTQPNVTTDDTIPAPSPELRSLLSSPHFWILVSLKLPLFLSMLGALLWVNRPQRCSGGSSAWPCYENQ
Binder,binding result [1],EC50 [2],"cancer cell proliferation inhibitory effect, CT26 mouse colon cancer cells, 10 ug/mL antibody, 5 days, CCK-8 [3]"
"SL18 (antibody, V domains shown, also called anti-CD300c monoclonal antibody SL18; CB301 antibody SL18) VH: RVQLLESGGGLVQPGGSLRLSCAASGFTFSDYHMHWVRQAPGKGLEWVSTISSSGGYTYYAESVKSRFTISRDNSKNTLYLQMNSLRAEDTAVYYCARSIRLPLDYWGQGTLVTVSS VL: QSVLTQPPSASGTPGQRVTISCSGNNIGSKGVHWYQQLPGTAPKLLIYEDSKRPSGVRDRFSGSKSGTSASLAISGLRSEDEADYYCQSYDSTKGVVFGGGTKLTVL",–,0.17 µg/mL,38%
"CL10 (antibody, V domains shown, also called anti-CD300c monoclonal antibody CL10; CB301 antibody CL10) VH: EVQLLESGGGLVQPGGSLRLSCAASGFTFSSYGMHWVRQAPGKGLEWVSAISGSGGSTYYADSVKGRFTISRDNSKNTLYLQMNSLRAEDTAVYYCASGYGLMDVWGQGTLVTVSS VL: QSVLTQPPSASGTPGQRVTISCTRSSGIIASNYVQWYQQLPGTAPKLLIYRNNQRPSGVPDRFSGSKSGTSASLAISGLRSEDEADYYCSSYAGNNNLVFGGGTKLTVL",–,0.039 µg/mL,15%

# Other lines, results leading:
binding result [1],EC50 [2],"cancer cell proliferation inhibitory effect, CT26 mouse colon cancer cells, 10 ug/mL antibody, 5 days, CCK-8 [3]",Binder
binds,–,–,"CB301_OPALTL_B5 (antibody, V domains shown) VH: EVQLLESGGGLVQPGGSLRLSCAASGFTFSHYAMSWVRQAPGKGLEWVSAISGSGGSTYYADSVKGRFTISRDNSKNTLYLQMNSLRAEDTAVYYCARGWDSPTLTYFDSWGQGTLVTVSS VL: QSVLTQPPSASGTPGQRVTISCSGTSSNIGNNDVSWYQQLPGTAPKLLIYQDTKRPSGVPDRFSGSKSGTSASLAISGLRSEDEADYYCAAWDDSLSGPVFGGGTKLTVL"
binds,–,–,"CB301_OPALTL_E6 (antibody, V domains shown) VH: EVQLLESGGGLVQPGGSLRLSCAASGFTFSSYGMHWVRQAPGKGLEWVSAISGSGGYTYYADSVKGRFTISRDNSKNTLYLQMNSLRAEDTAVYYCARWHYSFDYWGQGTLVTVSS VL: QSVLTQPPSASGTPGQRVTISCSGSSSNIGNNYVSWYQQLPGTAPKLLIYRNNQRPSGVPDRFSGSKSGTSASLAISGLRSEDEADYYCQSYDNSNVLFGGGTKLTVL"
